The values below are quoted from earlier work in article PMC4618378.

The term Ki denotes the dissociation constant of the complex between target and ligand, obtained from inhibition or displacement.

Data set [1] addresses cone PDE6 gamma-subunit (Homo sapiens) (UniProt Q13956).
Data set [2] addresses rod PDE6 gamma-subunit (Homo sapiens) (UniProt P18545).
UniProt P18545, sequence (P18545 whole entry): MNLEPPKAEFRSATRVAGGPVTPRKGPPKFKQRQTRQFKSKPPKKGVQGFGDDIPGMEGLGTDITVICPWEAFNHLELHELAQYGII

UniProt Q13956, sequence (Q13956 whole entry): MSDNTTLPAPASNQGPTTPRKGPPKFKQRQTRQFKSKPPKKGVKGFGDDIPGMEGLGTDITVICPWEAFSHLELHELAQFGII

Consider PDE6C (from UniProt P51160), for which the inhibition constant Ki is 0.078 nM in data set [1] and 0.155 nM in data set [2].
